Positions count from the first letter of the chain named.
What was measured:
Experiment in all cases: two-hybrid; LexA-Cdc1 bait (pBTM116 or pBTM116BN) with Gal4-Pol3 prey and co-expressed c-myc-tagged Cdc27 (pAA-Cdc27) in S. cerevisiae CTY10-5d; ONPG liquid culture beta-galactosidase assay, mean of triplicates, as percent of wild-type Cdc1
Conditions in all cases: partners not purified
Cdc1-A7 = molecular target: T1, Cdc1-A7 (Schizosaccharomyces pombe, UniProt P87324 1-462, Gly344Ala)
T1 construct: Cdc1, S. pombe, point mutant; source: yeast two-hybrid fusion, in S. cerevisiae CTY10-5d
T1 sequence (looked up): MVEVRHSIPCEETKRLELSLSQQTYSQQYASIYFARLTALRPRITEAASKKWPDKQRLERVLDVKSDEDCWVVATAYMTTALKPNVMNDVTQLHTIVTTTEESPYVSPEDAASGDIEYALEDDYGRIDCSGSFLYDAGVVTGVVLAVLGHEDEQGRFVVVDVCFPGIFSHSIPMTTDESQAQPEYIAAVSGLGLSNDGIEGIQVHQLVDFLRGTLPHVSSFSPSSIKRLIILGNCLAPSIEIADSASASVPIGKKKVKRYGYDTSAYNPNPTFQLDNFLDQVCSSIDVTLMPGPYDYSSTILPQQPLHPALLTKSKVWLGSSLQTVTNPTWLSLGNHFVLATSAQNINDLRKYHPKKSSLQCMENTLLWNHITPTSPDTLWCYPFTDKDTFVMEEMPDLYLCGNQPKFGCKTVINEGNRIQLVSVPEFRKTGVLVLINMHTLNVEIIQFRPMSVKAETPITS

Cdc1-J9 = molecular target: T2, Cdc1-J9 (Schizosaccharomyces pombe, UniProt P87324 1-462, Met-ArgGlyThrProMet-Thr)
T2 construct: Cdc1, S. pombe, with a pentapeptide inserted after residue 174; source: yeast two-hybrid fusion, in S. cerevisiae CTY10-5d
T2 sequence (looked up): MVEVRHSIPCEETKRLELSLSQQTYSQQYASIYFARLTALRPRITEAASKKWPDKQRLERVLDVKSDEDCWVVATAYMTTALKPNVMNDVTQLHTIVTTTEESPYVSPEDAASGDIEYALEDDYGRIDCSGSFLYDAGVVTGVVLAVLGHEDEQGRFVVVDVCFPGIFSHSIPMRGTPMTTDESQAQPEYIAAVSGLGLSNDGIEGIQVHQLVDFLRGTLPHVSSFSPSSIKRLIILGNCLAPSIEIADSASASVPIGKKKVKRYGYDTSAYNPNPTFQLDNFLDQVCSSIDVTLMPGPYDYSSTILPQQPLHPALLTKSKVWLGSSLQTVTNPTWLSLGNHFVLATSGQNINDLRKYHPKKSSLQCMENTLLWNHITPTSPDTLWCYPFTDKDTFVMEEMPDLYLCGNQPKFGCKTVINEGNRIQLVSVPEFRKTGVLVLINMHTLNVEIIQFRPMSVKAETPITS

Cdc1-A6 = molecular target: T3, Cdc1-A6 (Schizosaccharomyces pombe, UniProt P87324 1-462, Pro329Ala)
T3 construct: Cdc1, S. pombe, point mutant; source: yeast two-hybrid fusion, in S. cerevisiae CTY10-5d
T3 sequence (looked up): T1 sequence (looked up) with P329A, A344G

Cdc1-A10 = molecular target: T4, Cdc1-A10 (Schizosaccharomyces pombe, UniProt P87324 1-462, Asn328Ala | Pro329Ala)
T4 construct: Cdc1, S. pombe, double point mutant (A5 and A6 combined); source: yeast two-hybrid fusion, in S. cerevisiae CTY10-5d
T4 sequence (looked up): T1 sequence (looked up) with N328A, P329A, A344G

two-hybrid beta-galactosidase activity, % of wild-type Cdc1 (Cdc1-A7): 9%
two-hybrid beta-galactosidase activity, % of wild-type Cdc1 (Cdc1-J9): 91%
two-hybrid beta-galactosidase activity, % of wild-type Cdc1 (Cdc1-A6): < 1%
two-hybrid beta-galactosidase activity, % of wild-type Cdc1 (Cdc1-A10): < 1%
B1: Pol3 (fission yeast DNA polymerase delta catalytic subunit) (natural protein, Schizosaccharomyces pombe, UniProt P30316 1-1086, looked up)
chain: MTDRSSNEGVVLNKENYPFPRRNGSIHGEITDVKRRRLSERNGYGDKKGSSSKEKTSSFEDELAEYASQLDQDEIKSSKDQQWQRPALPAINPEKDDIYFQQIDSEEFTEGSVPSIRLFGVTDNGNSILVHVVGFLPYFYVKAPVGFRPEMLERFTQDLDATCNGGVIDHCIIEMKENLYGFQGNEKSPFIKIFTTNPRILSRARNVFERGEFNFEELFPVGVGVTTFESNTQYLLRFMIDCDVVGMNWIHLPASKYQFRYQNRVSNCQIEAWINYKDLISLPAEGQWSKMAPLRIMSFDIECAGRKGVFPDPSIDPVIQIASIVTQYGDSTPFVRNVFCVDTCSQIVGTQVYEFQNQAEMLSSWSKFVRDVDPDVLIGYNICNFDIPYLLDRAKSLRIHNFPLLGRIHNFFSVAKETTFSSKAYGTRESKTTSIPGRLQLDMLQVMQRDFKLRSYSLNAVCSQFLGEQKEDVHYSIITDLQNGTADSRRRLAIYCLKDAYLPQRLMDKLMCFVNYTEMARVTGVPFNFLLARGQQIKVISQLFRKALQHDLVVPNIRVNGTDEQYEGATVIEPIKGYYDTPIATLDFSSLYPSIMQAHNLCYTTLLDSNTAELLKLKQDVDYSVTPNGDYFVKPHVRKGLLPIILADLLNARKKAKADLKKETDPFKKAVLDGRQLALKVSANSVYGFTGATNGRLPCLAISSSVTSYGRQMIEKTKDVVEKRYRIENGYSHDAVVIYGDTDSVMVKFGVKTLPEAMKLGEEAANYVSDQFPNPIKLEFEKVYFPYLLISKKRYAGLFWTRTDTYDKMDSKGIETVRRDNCPLVSYVIDTALRKMLIDQDVEGAQLFTKKVISDLLQNKIDMSQLVITKALSKTDYAAKMAHVELAERMRKRDAGSAPAIGDRVAYVIIKGAQGDQFYMRSEDPIYVLENNIPIDAKYYLENQLSKPLLRIFEPILGEKASSLLHGDHTRTISMAAPSVGGIMKFAVKVETCLGCKAPIKKGKTALCENCLNRSAELYQRQVAQVNDLEVRFARLWTQCQRCQGSMHQDVICTSRDCPIFYMRIAEHKKLQQSVDLLKRFDEMSW
notes: DNA polymerase delta catalytic subunit Pol3, S. pombe; prey plasmid named pACT-Pol3 in the results and pGAD2F-Pol3 in the methods; also called Gal4-Pol3; pACT-Pol3; source: yeast two-hybrid fusion, in S. cerevisiae CTY10-5d

Source: PMC2734569, “Functional mapping of the fission yeast DNA polymerase δ B-subunit Cdc1 by site-directed and random pentapeptide insertion mutagenesis” (BMC Molecular Biology, 2009)
